These results are taken from paper PMC12356973.

This series has as its target nsp10 (two [Fe4S4]);nsp16 (SARS-CoV-2;SARS-CoV-2, UniProt P0DTD1;P0DTD1 4254-4392;6799-7096, |). As to the kind of experiment: EMSA. As to conditions: protein: recombinant;recombinant; copies: 1;1; single strand. For orientation: Mobility shift assays separate free from complexed probe on a gel.

B1: Cap-0 RNA (7MeGppp RNA) (ssRNA)
RNA: AUUAAAGGUU
modifications: 5' m7Gppp cap (Cap-0), Vaccinia capping system
In the case of B1, the binding result is recorded as “binds”.
